From US20240425589A1 (Chugai, published 2024)
Where a chain is given by its changes, count along the chain named.

What was measured:
hCLDN3/BaF3 = target: T1, hCLDN3/BaF3; assay: flow cytometry on hCLDN3/BaF3 cells, detection with Alexa Fluor 488 anti-human IgG
T1 construct: also called human CLDN3 on Ba/F3 cells
T1 membrane protein: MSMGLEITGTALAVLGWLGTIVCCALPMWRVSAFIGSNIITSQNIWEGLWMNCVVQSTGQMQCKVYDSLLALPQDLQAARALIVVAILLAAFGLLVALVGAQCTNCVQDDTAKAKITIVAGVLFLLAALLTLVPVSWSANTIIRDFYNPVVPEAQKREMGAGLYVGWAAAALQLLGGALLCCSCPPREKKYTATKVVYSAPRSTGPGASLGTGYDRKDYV

hCLDN4/BaF3 = target: T2, hCLDN4/BaF3; assay: flow cytometry on hCLDN4/BaF3 cells, detection with Alexa Fluor 488 anti-human IgG
T2 construct: also called human CLDN4 on Ba/F3 cells
T2 membrane protein: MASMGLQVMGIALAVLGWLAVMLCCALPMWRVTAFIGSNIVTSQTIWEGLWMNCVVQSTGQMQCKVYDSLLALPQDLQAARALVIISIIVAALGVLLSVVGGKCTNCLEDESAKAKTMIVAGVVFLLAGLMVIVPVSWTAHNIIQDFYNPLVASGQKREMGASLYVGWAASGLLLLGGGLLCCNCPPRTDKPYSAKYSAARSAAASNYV

hCLDN9/BaF3 = target: T3, hCLDN9/BaF3; assay: flow cytometry on hCLDN9/BaF3 cells, detection with Alexa Fluor 488 anti-human IgG
T3 construct: also called human CLDN9 on Ba/F3 cells
T3 membrane protein: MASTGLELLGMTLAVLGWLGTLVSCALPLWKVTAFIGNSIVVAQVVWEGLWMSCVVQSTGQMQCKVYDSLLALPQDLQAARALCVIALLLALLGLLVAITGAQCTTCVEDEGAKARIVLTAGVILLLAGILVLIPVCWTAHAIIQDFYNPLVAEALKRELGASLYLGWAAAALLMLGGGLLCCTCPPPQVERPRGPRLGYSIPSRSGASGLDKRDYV

[1] = target: T4, human CLDN6 on Ba/F3 cells (hCLDN6/BaF) (human, UniProt P56747 1-220); assay: flow cytometry on hCLDN6/BaF3 cells, detection with Alexa Fluor 488 anti-human IgG
T4 construct: also called human Claudin-6
T4 chain: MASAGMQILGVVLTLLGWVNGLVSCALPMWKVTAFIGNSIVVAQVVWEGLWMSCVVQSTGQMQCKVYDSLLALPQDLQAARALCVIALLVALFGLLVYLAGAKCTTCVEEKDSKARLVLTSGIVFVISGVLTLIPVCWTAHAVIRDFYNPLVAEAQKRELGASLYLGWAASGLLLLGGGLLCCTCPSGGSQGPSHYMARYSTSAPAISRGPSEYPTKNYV

[2] = target: cyno CLDN6 VLP (virus-like particle) (cynomolgus monkey)
human CD3eg linker = target: T5, human CD3eg linker (human); assay: SPR Biacore 8K, 25 C, pH 7.4, antibody captured by anti-human Fc on CM4 chip, CD3eg injected at 500 and 2000 nM, 1:1 fit
T5 construct: Single-chain construct: CD3 gamma and epsilon subunits joined by a 29-mer linker, Flag-tag at the C-terminal end of the gamma subunit; also called recombinant human CD3; gamma and epsilon subunits of the human CD3 complex linked by a 29-mer linker, Flag-tag
T5 chain: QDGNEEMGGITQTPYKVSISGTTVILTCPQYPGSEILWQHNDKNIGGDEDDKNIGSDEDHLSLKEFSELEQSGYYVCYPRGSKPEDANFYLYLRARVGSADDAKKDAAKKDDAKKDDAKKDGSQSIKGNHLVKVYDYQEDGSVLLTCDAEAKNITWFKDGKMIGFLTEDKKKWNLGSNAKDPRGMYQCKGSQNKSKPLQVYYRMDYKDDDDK

recombinant cyno CD3eg = target: T6, recombinant cyno CD3eg (cynomolgus monkey); assay: as above
T6 construct: Construct not described; also called cyno CD3eg (gamma and epsilon subunits of CD3)
T6 sequence (Q95LI5 22-117, chain 1 of 2): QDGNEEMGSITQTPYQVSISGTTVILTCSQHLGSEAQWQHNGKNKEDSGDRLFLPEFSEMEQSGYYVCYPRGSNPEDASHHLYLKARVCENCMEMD
T6 sequence (Q95LI7 23-113, chain 2 of 2, further chain): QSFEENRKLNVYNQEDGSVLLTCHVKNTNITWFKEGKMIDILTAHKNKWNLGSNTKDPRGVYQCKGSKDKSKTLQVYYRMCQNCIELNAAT

[3] = target: T7, Human CD137 extracellular domain (ECD) with hexahistidine (His-tag) and biotin acceptor peptide (BAP) (human); assay: SPR Biacore 8K, 37 C, pH 7.4, antibody captured by anti-human Fc on CM4 chip, CD137 injected at 500 and 2000 nM, 1:1 fit
T7 construct: Expressed in FreeStyle293F cells; also called recombinant human CD137; human CD137 ECD; not shown: C-terminal hexahistidine tag and biotin acceptor peptide (BAP)
T7 sequence (chain, as listed by the source): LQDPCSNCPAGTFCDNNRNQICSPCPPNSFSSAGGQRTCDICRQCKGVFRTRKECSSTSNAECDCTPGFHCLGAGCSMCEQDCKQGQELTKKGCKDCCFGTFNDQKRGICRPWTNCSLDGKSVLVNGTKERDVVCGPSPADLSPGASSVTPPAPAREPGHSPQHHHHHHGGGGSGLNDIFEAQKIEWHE

recombinant cyno CD137 = target: T8, recombinant cyno CD137 (cynomolgus monkey, UniProt A9YYE7 24-186); assay: as above
T8 sequence: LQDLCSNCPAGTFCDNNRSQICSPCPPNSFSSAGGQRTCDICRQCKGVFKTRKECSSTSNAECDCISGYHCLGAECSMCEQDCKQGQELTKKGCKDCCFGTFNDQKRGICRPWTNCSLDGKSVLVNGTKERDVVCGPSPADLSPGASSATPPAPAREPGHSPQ

[4] = target: T9, human CLDN6 VLP (virus-like particle) (human, UniProt P56747 1-220); assay: SPR Biacore T200, 25 C, pH 7.4, CLDN6 VLP captured by anti-human CD81 on C1 chip, antibody injected at 50 and 200 nM, 1:1 fit
T9 chain: T4 chain

B1: CS2961 (bispecific antibody, V domains shown)
VH 1: QVQLVESGGGVVQPGGSLRLSCAASGFTFSSYTMSWVREAPGQGLEWMGTISSGGGRTYYPDSVKGRFTISRDNSKNTLYLQMNSLRDEDTAVYYCARGDYRYDGFAYWGEGTLVTVSS
VL 1: DIQMTQSPSSLSASVGDRVTITCRASYNIDSYLAWYQKKPGKAPELLIYYSTLLVDGVPDRFSGSRSGTDFTLTISSLQPEDFATYYCQHYYSIPYTFGQGTKVEIE
VH 2: QVQLVESGGGVVQPGGSLRLSCAASGFTFSNAWMHWVRKAPGKGLEWVAQIKDKSQNYATYVAESVKGRFTISRADSKNSIYLQMNSLKTEDTAVYYCRYVHYAAGYGVDIWGQGTTVTVSS
VL 2: DIVMTQSPLSLPVTPGEPASISCRSSQPLVHSNRNTYLHWYQEKPGQAPRLLIYKVSNRFSGVPDRFSGSGSGTDFTLKISRVEAEDVGVYYCGQGTQVPYTFGQGTKLEIK
notes: detected with anti-human IgG; also called anti-CLDN6/CD3 bispecific antibody (CS2961)
binding result (hCLDN3/BaF3): no binding (tested: 15 micro g/ml)
binding result (hCLDN4/BaF3): no binding (tested: 15 micro g/ml)
binding result (hCLDN9/BaF3): no binding (tested: 15 micro g/ml)

B2: KLH/TR01 (bispecific antibody, V domains shown)
VH 1: QVQLQQSGPQLVRPGASVKISCKASGYSFTSYWMHWVNQRPGQGLEWIGMIDPSYSETRLNQKFKDKATLTVDKSSSTAYMQLSSPTSEDSAVYYCALYGNYFDYWGQGTTLTVSS
VL 1: DIQMTQSSSSFSVSLGDRVTITCKASEDIYNRLAWYQQKPGNAPRLLISGATSLETGVPSRFSGSGSGKDYTLSITSLQTEDVATYYCQQYWSTPYTFGGGTKLEVK
VH 2: B1 VH 2 with K39Q
VL 2: B1 VL 2 with E43Q
notes: also called negative control
binding result [1]: no binding (tested: 15 micro g/ml)
binding result (hCLDN9/BaF3): no binding (tested: 15 micro g/ml)

B3: 6PHU3/TR01 (bispecific antibody, V domains shown)
VH 1: EVQLQQSGPELVKPGASMKISCKASGYSFTGYTMNWVKQSHGKNLEWIGLINPYNGGTIYNQKFKGKATLTVDKSSSTAYMELLSLTSEDSAVYYCARDYGFVLDYWGQGTTLTVSS
VL 1: DIVLTQSPSIMSVSPGEKVTITCSASSSVSYMHWFQQKPGTSPKLCIYSTSNLASGVPARFSGRGSGTSYSLTISRVAAEDAATYYCQQRSNYPPWTFGGGTKLEIK
VH 2: B1 VH 2 with K39Q
VL 2: B1 VL 2 with E43Q
notes: also called anti-CLDN6/CD3 bispecific antibody (6PHU3/TR01)
binding result (hCLDN3/BaF3): no binding (tested: 15 micro g/ml)
binding result (hCLDN4/BaF3): no binding (tested: 15 micro g/ml)

B4: PPU4135 (bispecific antibody, human IgG1, kappa, L234A L235A, N297A)
heavy 1: QVQLVESGGGVVQPGGSLRLSCAASGFTFSSYTMSWVRQAPGQGLEWMGTISSGGGRTYYPDSVKGRFTISRDNSKNTLYLQMNSLRDEDTAVYYCARGDYRYDGFAYWGEGTLVTVSSASTKGPSVFPLAPSSKSTSGGTAALGCLVEDYFPEPVTVSWNSGALTSGVHTFPAVLESSGLYSLSSVVTVPSSSLGTQTYICNVNHKPSNTKVDKRVEPKSCDKTHTCPPCPAPEAAGGPSVFLFPPKPKDTLMISRTPEVTCVVVDVSHEDPEVKFNWYVDGVEVHNAKTKPREEQYASTYRVVSVLTVLHQDWLNGKEYKCKVSNKALPAPIEKTISKAKGQPREPQVYTLPPSREEMTKNQVSLTCLVKGFYPSDIAVEWESNGQPENNYKTTPPVLDSDGSFFLYSKLTVDKSRWQQGNVFSCSVMHEALHNHYTQESLSLSP
light 1: DIQMTQSPSSLSASVGDRVTITCRASYNIDSYLAWYQQKPGKAPELLIYYSTLLVDGVPDRFSGSRSGTDFTLTISSLQPEDFATYYCQHYYSIPYTFGQGTKVEIERTVAAPSVFIFPPSDEQLKSGTAKVVCLLNNFYPREAKVQWKVDNALQSGNSKESVTEQDSKDSTYSLSSTLTLSKADYEKHKVYACEVTHQGLSSPVTKSFNRGEC
heavy 2: QVQLVESGGGLVQPGRSLRLSCAASGFKFSNVWFHWVRQAPGKGLEWVAQIKDYYNAYAAYYAPSVKGRFTISRDDSKNSIYLQMNSLKTEDTAVYYCHYVHYASASTLLPAEGVDAWGQGTTVTVSSASTKGPSVFPLAPSSKSTSGGTAALGCLVKDYFPEPVTVSWNSGALTSGVHTFPAVLKSSGLYSLSSVVTVPSSSLGTQTYICNVNHKPSNTKVDKRVEPKSCDKTHTCPPCPAPEAAGGPSVFLFPPKPKDTLMISRTPEVTCVVVDVSHEDPEVKFNWYVDGVEVHNAKTKPREEQYASTYRVVSVLTVLHQDWLNGKEYKCKVSNKALPAPIEKTISKAKGQPREPQVYTLPPSRKEMTKNQVSLTCLVKGFYPSDIAVEWESNGQPENNYKTTPPVLDSDGSFFLYSKLTVDKSRWQQGNVFSCSVMHEALHNHYTQKSLSLSP
light 2: DIVMTQSPLSLPVTPGEPASISCQPSQEVVHMNRNTYLHWYQQKPGQAPRLLIYKVSNRFPGVPDRFSGSGSGTDFTLKISRVEAEDVGVYYCAQGTSHPFTFGQGTKLEIKRTVAAPSVFIFPPSDEQLKSGTAEVVCLLNNFYPREAKVQWKVDNALQSGNSEESVTEQDSKDSTYSLSSTLTLSKADYEKHKVYACEVTHQGLSSPVTKSFNRGEC
notes: also called CS4135; Ab03
Kd [2]: 3.77 nM
koff [2]: 0.000821 s⁻¹
kon [2]: 218000 M⁻¹ s⁻¹
Kd (human CD3eg linker): 341 nM
koff (human CD3eg linker): 0.0266 s⁻¹
kon (human CD3eg linker): 78000 M⁻¹ s⁻¹
Kd (recombinant cyno CD3eg): 329 nM
koff (recombinant cyno CD3eg): 0.0332 s⁻¹
kon (recombinant cyno CD3eg): 101000 M⁻¹ s⁻¹
Kd [3]: 46.8 nM
koff [3]: 0.000591 s⁻¹
kon [3]: 12600 M⁻¹ s⁻¹
Kd (recombinant cyno CD137): 174 nM
koff (recombinant cyno CD137): 0.00146 s⁻¹
kon (recombinant cyno CD137): 8350 M⁻¹ s⁻¹
Kd [4]: 3.65 nM
koff [4]: 0.000794 s⁻¹
kon [4]: 217000 M⁻¹ s⁻¹
